Experimental data from patent publication US20110105394A1 (Novo Nordisk, published 2011).
*1 amine or outer side, *2 acyl side, *3 side chain or, on linkers, in order; H or OH if unused. Bridges are numbered along the chain shown (N, C = ends). The star is where a group is joined. C20 diacid = O=C(O)CCCCCCCCCCCCCCCCCCC(=O)*; γGlu = O=C(O)[C@H](CCC(=O)[*:2])N[*:1]

T1: Amylin 3(a) receptor (human calcitonin receptor (CTa) with RAMP-3) (human) (UniProt P30988)
T1 sequence (looked up) 1: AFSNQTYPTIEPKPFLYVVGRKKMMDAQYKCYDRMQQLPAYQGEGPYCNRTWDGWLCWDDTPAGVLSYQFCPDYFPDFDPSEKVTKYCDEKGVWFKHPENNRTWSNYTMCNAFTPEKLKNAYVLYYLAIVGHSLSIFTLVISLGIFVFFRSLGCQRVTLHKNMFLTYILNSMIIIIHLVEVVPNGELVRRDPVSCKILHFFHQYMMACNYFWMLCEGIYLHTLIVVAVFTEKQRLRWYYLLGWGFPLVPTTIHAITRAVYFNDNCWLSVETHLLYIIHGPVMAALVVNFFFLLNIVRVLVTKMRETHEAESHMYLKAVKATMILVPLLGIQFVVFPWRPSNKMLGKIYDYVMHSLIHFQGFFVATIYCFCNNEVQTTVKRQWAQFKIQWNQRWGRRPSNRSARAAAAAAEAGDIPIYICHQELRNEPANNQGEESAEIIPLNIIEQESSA
T1 sequence (looked up) 2: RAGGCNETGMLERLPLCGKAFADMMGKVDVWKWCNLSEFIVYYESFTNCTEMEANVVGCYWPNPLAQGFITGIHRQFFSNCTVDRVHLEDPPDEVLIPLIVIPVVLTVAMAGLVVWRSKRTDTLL

B1: N-alpha-[(S)-4-Carboxy-4-(19-carboxynonadecanoylamino)butyryl]-Glu-His-Arg-[His1,His17]-pramlintide (peptide)
peptide: {C20 diacid-γGlu}-EHRHCNTATCATQRLANFLHHSSNNFGPILPPTNVGSNTY-NH2
modifications: disulfide 5-10
SMILES: CC[C@H](C)[C@H](NC(=O)[C@@H]1CCCN1C(=O)CNC(=O)[C@H](Cc1ccccc1)NC(=O)[C@H](CC(N)=O)NC(=O)[C@H](CC(N)=O)NC(=O)[C@H](CO)NC(=O)[C@H](CO)NC(=O)[C@H](Cc1c[nH]cn1)NC(=O)[C@H](Cc1c[nH]cn1)NC(=O)[C@H](CC(C)C)NC(=O)[C@H](Cc1ccccc1)NC(=O)[C@H](CC(N)=O)NC(=O)[C@H](C)NC(=O)[C@H](CC(C)C)NC(=O)[C@H](CCCNC(=N)N)NC(=O)[C@H](CCC(N)=O)NC(=O)[C@@H](NC(=O)[C@H](C)NC(=O)[C@@H]1CSSC[C@H](NC(=O)[C@H](Cc2c[nH]cn2)NC(=O)[C@H](CCCNC(=N)N)NC(=O)[C@H](Cc2c[nH]cn2)NC(=O)[C@H](CCC(=O)O)NC(=O)CC[C@H](NC(=O)CCCCCCCCCCCCCCCCCCC(=O)O)C(=O)O)C(=O)N[C@@H](CC(N)=O)C(=O)N[C@@H]([C@@H](C)O)C(=O)N[C@@H](C)C(=O)N[C@@H]([C@@H](C)O)C(=O)N1)[C@@H](C)O)C(=O)N[C@@H](CC(C)C)C(=O)N1CCC[C@H]1C(=O)N1CCC[C@H]1C(=O)N[C@H](C(=O)N[C@@H](CC(N)=O)C(=O)N[C@H](C(=O)NCC(=O)N[C@@H](CO)C(=O)N[C@@H](CC(N)=O)C(=O)N[C@H](C(=O)N[C@@H](Cc1ccc(O)cc1)C(N)=O)[C@@H](C)O)C(C)C)[C@@H](C)O
B2: N-alpha-[(S)-4-Carboxy-4-(19-carboxynonadecanoylamino)butyryl]-GluHis-His-[Arg1,His17,Gln21]-pramlintide (peptide)
peptide: {C20 diacid-γGlu}-EHHRCNTATCATQRLANFLHHSSQNFGPILPPTNVGSNTY-NH2
modifications: disulfide 5-10
SMILES: CC[C@H](C)[C@H](NC(=O)[C@@H]1CCCN1C(=O)CNC(=O)[C@H](Cc1ccccc1)NC(=O)[C@H](CC(N)=O)NC(=O)[C@H](CCC(N)=O)NC(=O)[C@H](CO)NC(=O)[C@H](CO)NC(=O)[C@H](Cc1c[nH]cn1)NC(=O)[C@H](Cc1c[nH]cn1)NC(=O)[C@H](CC(C)C)NC(=O)[C@H](Cc1ccccc1)NC(=O)[C@H](CC(N)=O)NC(=O)[C@H](C)NC(=O)[C@H](CC(C)C)NC(=O)[C@H](CCCNC(=N)N)NC(=O)[C@H](CCC(N)=O)NC(=O)[C@@H](NC(=O)[C@H](C)NC(=O)[C@@H]1CSSC[C@H](NC(=O)[C@H](CCCNC(=N)N)NC(=O)[C@H](Cc2c[nH]cn2)NC(=O)[C@H](Cc2c[nH]cn2)NC(=O)[C@H](CCC(=O)O)NC(=O)CC[C@H](NC(=O)CCCCCCCCCCCCCCCCCCC(=O)O)C(=O)O)C(=O)N[C@@H](CC(N)=O)C(=O)N[C@@H]([C@@H](C)O)C(=O)N[C@@H](C)C(=O)N[C@@H]([C@@H](C)O)C(=O)N1)[C@@H](C)O)C(=O)N[C@@H](CC(C)C)C(=O)N1CCC[C@H]1C(=O)N1CCC[C@H]1C(=O)N[C@H](C(=O)N[C@@H](CC(N)=O)C(=O)N[C@H](C(=O)NCC(=O)N[C@@H](CO)C(=O)N[C@@H](CC(N)=O)C(=O)N[C@H](C(=O)N[C@@H](Cc1ccc(O)cc1)C(N)=O)[C@@H](C)O)C(C)C)[C@@H](C)O
B3: N-alpha-[(S)-4-Carboxy-4-(19-carboxynonadecanoylamino)butyryl]-Glu-His-His-[His1,His17]-pramlintide (peptide)
peptide: {C20 diacid-γGlu}-EHHHCNTATCATQRLANFLHHSSNNFGPILPPTNVGSNTY-NH2
modifications: disulfide 5-10
SMILES: CC[C@H](C)[C@H](NC(=O)[C@@H]1CCCN1C(=O)CNC(=O)[C@H](Cc1ccccc1)NC(=O)[C@H](CC(N)=O)NC(=O)[C@H](CC(N)=O)NC(=O)[C@H](CO)NC(=O)[C@H](CO)NC(=O)[C@H](Cc1c[nH]cn1)NC(=O)[C@H](Cc1c[nH]cn1)NC(=O)[C@H](CC(C)C)NC(=O)[C@H](Cc1ccccc1)NC(=O)[C@H](CC(N)=O)NC(=O)[C@H](C)NC(=O)[C@H](CC(C)C)NC(=O)[C@H](CCCNC(=N)N)NC(=O)[C@H](CCC(N)=O)NC(=O)[C@@H](NC(=O)[C@H](C)NC(=O)[C@@H]1CSSC[C@H](NC(=O)[C@H](Cc2c[nH]cn2)NC(=O)[C@H](Cc2c[nH]cn2)NC(=O)[C@H](Cc2c[nH]cn2)NC(=O)[C@H](CCC(=O)O)NC(=O)CC[C@H](NC(=O)CCCCCCCCCCCCCCCCCCC(=O)O)C(=O)O)C(=O)N[C@@H](CC(N)=O)C(=O)N[C@@H]([C@@H](C)O)C(=O)N[C@@H](C)C(=O)N[C@@H]([C@@H](C)O)C(=O)N1)[C@@H](C)O)C(=O)N[C@@H](CC(C)C)C(=O)N1CCC[C@H]1C(=O)N1CCC[C@H]1C(=O)N[C@H](C(=O)N[C@@H](CC(N)=O)C(=O)N[C@H](C(=O)NCC(=O)N[C@@H](CO)C(=O)N[C@@H](CC(N)=O)C(=O)N[C@H](C(=O)N[C@@H](Cc1ccc(O)cc1)C(N)=O)[C@@H](C)O)C(C)C)[C@@H](C)O
B4: N-alpha-[(S)-4-Carboxy-4-(19-carboxynonadecanoylamino)butyryl]-Glu-His-His-[Arg1,Arg17]-pramlintide (peptide)
peptide: {C20 diacid-γGlu}-EHHRCNTATCATQRLANFLRHSSNNFGPILPPTNVGSNTY-NH2
modifications: disulfide 5-10
SMILES: CC[C@H](C)[C@H](NC(=O)[C@@H]1CCCN1C(=O)CNC(=O)[C@H](Cc1ccccc1)NC(=O)[C@H](CC(N)=O)NC(=O)[C@H](CC(N)=O)NC(=O)[C@H](CO)NC(=O)[C@H](CO)NC(=O)[C@H](Cc1c[nH]cn1)NC(=O)[C@H](CCCNC(=N)N)NC(=O)[C@H](CC(C)C)NC(=O)[C@H](Cc1ccccc1)NC(=O)[C@H](CC(N)=O)NC(=O)[C@H](C)NC(=O)[C@H](CC(C)C)NC(=O)[C@H](CCCNC(=N)N)NC(=O)[C@H](CCC(N)=O)NC(=O)[C@@H](NC(=O)[C@H](C)NC(=O)[C@@H]1CSSC[C@H](NC(=O)[C@H](CCCNC(=N)N)NC(=O)[C@H](Cc2c[nH]cn2)NC(=O)[C@H](Cc2c[nH]cn2)NC(=O)[C@H](CCC(=O)O)NC(=O)CC[C@H](NC(=O)CCCCCCCCCCCCCCCCCCC(=O)O)C(=O)O)C(=O)N[C@@H](CC(N)=O)C(=O)N[C@@H]([C@@H](C)O)C(=O)N[C@@H](C)C(=O)N[C@@H]([C@@H](C)O)C(=O)N1)[C@@H](C)O)C(=O)N[C@@H](CC(C)C)C(=O)N1CCC[C@H]1C(=O)N1CCC[C@H]1C(=O)N[C@H](C(=O)N[C@@H](CC(N)=O)C(=O)N[C@H](C(=O)NCC(=O)N[C@@H](CO)C(=O)N[C@@H](CC(N)=O)C(=O)N[C@H](C(=O)N[C@@H](Cc1ccc(O)cc1)C(N)=O)[C@@H](C)O)C(C)C)[C@@H](C)O
B5: N-alpha-(19-carboxynonadecanoyl)-Glu-Glu-Arg-[Glu1,Glu14,His17,Glu31]-pramlintide (peptide)
peptide: {C20 diacid}-EERECNTATCATQRLAEFLHHSSNNFGPILPPTEVGSNTY-NH2
modifications: disulfide 5-10
SMILES: CC[C@H](C)[C@H](NC(=O)[C@@H]1CCCN1C(=O)CNC(=O)[C@H](Cc1ccccc1)NC(=O)[C@H](CC(N)=O)NC(=O)[C@H](CC(N)=O)NC(=O)[C@H](CO)NC(=O)[C@H](CO)NC(=O)[C@H](Cc1c[nH]cn1)NC(=O)[C@H](Cc1c[nH]cn1)NC(=O)[C@H](CC(C)C)NC(=O)[C@H](Cc1ccccc1)NC(=O)[C@H](CCC(=O)O)NC(=O)[C@H](C)NC(=O)[C@H](CC(C)C)NC(=O)[C@H](CCCNC(=N)N)NC(=O)[C@H](CCC(N)=O)NC(=O)[C@@H](NC(=O)[C@H](C)NC(=O)[C@@H]1CSSC[C@H](NC(=O)[C@H](CCC(=O)O)NC(=O)[C@H](CCCNC(=N)N)NC(=O)[C@H](CCC(=O)O)NC(=O)[C@H](CCC(=O)O)NC(=O)CCCCCCCCCCCCCCCCCCC(=O)O)C(=O)N[C@@H](CC(N)=O)C(=O)N[C@@H]([C@@H](C)O)C(=O)N[C@@H](C)C(=O)N[C@@H]([C@@H](C)O)C(=O)N1)[C@@H](C)O)C(=O)N[C@@H](CC(C)C)C(=O)N1CCC[C@H]1C(=O)N1CCC[C@H]1C(=O)N[C@H](C(=O)N[C@@H](CCC(=O)O)C(=O)N[C@H](C(=O)NCC(=O)N[C@@H](CO)C(=O)N[C@@H](CC(N)=O)C(=O)N[C@H](C(=O)N[C@@H](Cc1ccc(O)cc1)C(N)=O)[C@@H](C)O)C(C)C)[C@@H](C)O
B6: N-alpha-[(S)-4-Carboxy-4-(19-carboxynonadecanoylamino)butyryl]-Glu-His-Arg-[Arg1,His17]-pramlintide (peptide)
peptide: {C20 diacid-γGlu}-EHRRCNTATCATQRLANFLHHSSNNFGPILPPTNVGSNTY-NH2
modifications: disulfide 5-10
SMILES: CC[C@H](C)[C@H](NC(=O)[C@@H]1CCCN1C(=O)CNC(=O)[C@H](Cc1ccccc1)NC(=O)[C@H](CC(N)=O)NC(=O)[C@H](CC(N)=O)NC(=O)[C@H](CO)NC(=O)[C@H](CO)NC(=O)[C@H](Cc1c[nH]cn1)NC(=O)[C@H](Cc1c[nH]cn1)NC(=O)[C@H](CC(C)C)NC(=O)[C@H](Cc1ccccc1)NC(=O)[C@H](CC(N)=O)NC(=O)[C@H](C)NC(=O)[C@H](CC(C)C)NC(=O)[C@H](CCCNC(=N)N)NC(=O)[C@H](CCC(N)=O)NC(=O)[C@@H](NC(=O)[C@H](C)NC(=O)[C@@H]1CSSC[C@H](NC(=O)[C@H](CCCNC(=N)N)NC(=O)[C@H](CCCNC(=N)N)NC(=O)[C@H](Cc2c[nH]cn2)NC(=O)[C@H](CCC(=O)O)NC(=O)CC[C@H](NC(=O)CCCCCCCCCCCCCCCCCCC(=O)O)C(=O)O)C(=O)N[C@@H](CC(N)=O)C(=O)N[C@@H]([C@@H](C)O)C(=O)N[C@@H](C)C(=O)N[C@@H]([C@@H](C)O)C(=O)N1)[C@@H](C)O)C(=O)N[C@@H](CC(C)C)C(=O)N1CCC[C@H]1C(=O)N1CCC[C@H]1C(=O)N[C@H](C(=O)N[C@@H](CC(N)=O)C(=O)N[C@H](C(=O)NCC(=O)N[C@@H](CO)C(=O)N[C@@H](CC(N)=O)C(=O)N[C@H](C(=O)N[C@@H](Cc1ccc(O)cc1)C(N)=O)[C@@H](C)O)C(C)C)[C@@H](C)O

The binders below were run against T1, Amylin 3(a) receptor (human calcitonin receptor (CTa) with RAMP-3) (human) (assay: cell-based or functional assay).

B1 and B2 are the same in Potency Luciferase: 100 pM for the first, 100 pM for the second.

Going from B3 to B4, the Potency Luciferase rises from 100 pM to 200 pM (2-fold).

First: B5
Second: B6
The Potency Luciferase of the first is 4.5-fold higher: 900 pM for the first, 200 pM for the second.
